Assay in all cases: receptor-Fc IP
The target in one assay is T1, VEGFR-2-Fc (human, UniProt P35968 20-322).
T1 construct: domain: first 3 Ig domains; used as conditioned supernatant of 293T cells; also called VEGFR-2-Fc fusion protein; not shown: Fc fragment of the pIg vector
The method, then:
(§1) The binding assay procedure was identical to the immunoprecipitation using pentahistidine antibody described in Example 2, apart from the composition of the immunoprecipitation (IP) mixes. The IP mixes used for the receptor binding analysis were as follows: For VEGFR-1 binding assays, the IP mix was phosphate buffered saline (PBS) containing 1.5% BSA, 0.06% Tween 20, 3 μg/ml heparin and 400 ng/ml VEGFR-1-Fc fusion protein (100 μl of this IP mix was added to 200 μl of sample supernatant); for VEGFR-2 binding assays, the IP mix was 82% conditioned cell supernatant from 293T cells transiently expressing VEGFR-2-Fc fusion protein in mixture with 18% of a PBS solution that contained 5% BSA, 0.2% Tween 20, and 10 μg/ml heparin (250 μl of IP mix was added to 200 μl of sample supernatant); and for VEGFR-3 binding assays, the IP mix was 82% conditioned cell supernatant from 293T cells transiently expressing VEGFR-3-Fc fusion protein, 18% of PBS containing 5% BSA, 0.2% Tween 20, and 10 μg/ml heparin (250 μl of IP mix was added to 200 μl of sample supernatant).

The next assay deals with T2, VEGFR-1-Fc (human, UniProt P17948 27-331).
T2 construct: domain: first three Ig domains; expressed in Drosophila S2 cells, purified on Protein A sepharose; also called VEGFR-1-Fc fusion protein; not shown: Fc fragment from the Signal-pIgPlus vector
Here is the method: as §1

The next assay deals with T3, VEGFR-3-Fc (human, UniProt P35916 25-328).
T3 construct: domain: first three Ig domains; used as conditioned supernatant of 293T cells; also called VEGFR-3-Fc fusion protein; not shown: Fc fragment of the pIg vector
T3 sequence (looked up): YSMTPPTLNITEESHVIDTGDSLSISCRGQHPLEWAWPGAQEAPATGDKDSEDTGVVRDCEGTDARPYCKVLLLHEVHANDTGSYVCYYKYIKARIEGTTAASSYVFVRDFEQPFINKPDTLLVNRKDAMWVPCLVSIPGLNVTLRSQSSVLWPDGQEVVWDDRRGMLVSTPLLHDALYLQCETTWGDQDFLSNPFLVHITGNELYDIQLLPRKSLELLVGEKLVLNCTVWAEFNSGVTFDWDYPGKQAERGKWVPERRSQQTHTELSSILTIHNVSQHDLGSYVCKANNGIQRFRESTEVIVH
The method, then: as §1

Results on 23 molecules are retold here after US20050267024A1 (published 2005).

Substitutions are numbered along the chain they refer to.

T1 sequence (P35968 20-322): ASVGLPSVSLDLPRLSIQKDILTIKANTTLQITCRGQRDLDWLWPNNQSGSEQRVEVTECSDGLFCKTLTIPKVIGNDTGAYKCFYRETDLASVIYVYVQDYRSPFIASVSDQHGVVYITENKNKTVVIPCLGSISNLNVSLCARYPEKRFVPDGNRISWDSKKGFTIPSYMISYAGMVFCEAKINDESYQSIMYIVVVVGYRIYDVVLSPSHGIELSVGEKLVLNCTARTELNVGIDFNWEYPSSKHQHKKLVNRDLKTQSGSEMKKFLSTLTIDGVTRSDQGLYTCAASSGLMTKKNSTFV
T2 sequence (P17948 27-331): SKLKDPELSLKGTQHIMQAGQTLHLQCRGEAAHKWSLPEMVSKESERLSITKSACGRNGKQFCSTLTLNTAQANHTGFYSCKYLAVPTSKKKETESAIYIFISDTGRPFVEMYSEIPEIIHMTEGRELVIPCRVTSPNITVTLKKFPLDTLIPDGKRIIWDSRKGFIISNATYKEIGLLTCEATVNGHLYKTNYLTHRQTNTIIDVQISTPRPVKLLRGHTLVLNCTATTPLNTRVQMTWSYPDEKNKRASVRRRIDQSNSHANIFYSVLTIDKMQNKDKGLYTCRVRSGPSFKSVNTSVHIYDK

B1: 53-3 (ligand)
chain: AHYNTEILKSIDNEWRKTQCMPIETLVDIFQEYPDEIEYIFKPPCVSVYRCGGCCNSEGLQCVPTEESNITMQIMRIKPHQGQHIGEMSFLQHNKCECRPKKD
Consider B1, for which the binding result in the assay with VEGFR-2-Fc, with VEGFR-1-Fc and with VEGFR-3-Fc was “binds” throughout.

B2: 12-13 (ligand)
chain: GQNHHEVVKFMDVYQRSYCHPIETLVDIFQEFGVATNTFFKPPCVSVYRCGGCCNDEGLECVPTEESNITMQIMRITVPLSQGPKPVTISFANHTSCRCMSKLN
Turning to B2, the binding result with VEGFR-2-Fc is given as “no binding”; with VEGFR-1-Fc it was “binds”; with VEGFR-3-Fc, “binds”.

B3: 12-15 (ligand)
chain: B2 chain with D56S, E60Q, N104D
Take B3: the results for the binding result with VEGFR-2-Fc, with VEGFR-1-Fc and with VEGFR-3-Fc were “binds”, “no binding” and “binds”, respectively.

B4: 14-9 (ligand)
chain: GQNHHEVVKFMDVYQRSYCHPIETLVDIFQEFGVATNTFFKPSCVPLMRCGGCCNDEGLECVPTEESNITMQIMRITVPLSQGPKPVTISFLQHNKCECRPKKD
Regarding B4, the binding result with VEGFR-2-Fc, with VEGFR-1-Fc and with VEGFR-3-Fc was “binds” each time.

B5: 22-16 (ligand)
chain: AHYNTEILKSIDNEWRKTQCMPREVCIDVGKEFGVATNTFFKPPCVSVYRCGGCCNSEGLQCMNTSTSYLSKTLFEITVPLSQGPKPVTISFANHTSCRCMSKLD
Turning to B5, the binding result was “binds” with VEGFR-2-Fc, “no binding” with VEGFR-1-Fc and “binds” with VEGFR-3-Fc.

B6: 22-1 (ligand)
chain: AHYNTEILKSIDNEWRKTQCMPREVCIDVGKEFGVATNTFFKPPCVSVYRCGGCCNDEGLECVPTEESNITMQIMRIKPHQGQHIGEMSFLQHNKCECRPKKD
Turning to B6, the binding result with VEGFR-2-Fc, with VEGFR-1-Fc and in the assay with VEGFR-3-Fc was “no binding” each time.

B7: 72-7 (ligand)
chain: GQNHHEVVKSIDNEWRKTQCMPREVCIDVGKEFGVATNTFFKPPCVSVYRCGGCCNSEGLQCVPTEESNITMQIMRIKPHQGQHIGEMSFANHTSCRCMSKLD
As to B7, the binding result with VEGFR-2-Fc, with VEGFR-1-Fc and with VEGFR-3-Fc was “no binding” each time.

B8: 83-15 (ligand)
chain: AHYNTEILKFMDVYQRSYCHPIETLVDIFQEYPDEIEYIFKPPCVSVYRCGGCCNSEGLQCVPTEESNITMQIMRITVPLSQGPKPVTISFANHTSCRCMSKLD
For the molecule B8, the binding result with VEGFR-2-Fc is on record as “binds”; with VEGFR-1-Fc it was “binds”; in the assay with VEGFR-3-Fc it was “no binding”.

B9: 82-13 (ligand)
chain: B2 chain with G1A, Q2H, N3Y, H4N, H5T, V7I, V8L, N104D
Turning to B9, the values for the binding result in the assay with VEGFR-2-Fc, in the assay with VEGFR-1-Fc and with VEGFR-3-Fc were “no binding”, “binds” and “binds”, respectively.

B10: 12-3 (ligand)
chain: GQNHHEVVKFMDVYQRSYCHPIETLVDIFQEFGVATNTFFKPPCVSVYRCGGCCNSEGLQCVPTEESNITMQIMRIKPHQGQHIGEMSFLQHNKCECRPKKD
In the case of B10, the binding result with VEGFR-2-Fc was “binds”; with VEGFR-1-Fc, “binds”; with VEGFR-3-Fc it was “no binding”.

B11: 12-5 (ligand)
chain: B10 chain with S56D, Q60E, L90A, Q91N, N93T, K94S, E96R, R98M, P99S, K101L
As to B11, the binding result was “no binding” in the assay with VEGFR-2-Fc, “binds” with VEGFR-1-Fc and “no binding” with VEGFR-3-Fc.

B12: 11-1 (ligand)
chain: GQNHHEVVKFMDVYQRSYCHPIETLVDIFQEYPDEIEYIFKPSCVPLMRCGGCCNDEGLECVPTEESNITMQIMRIKPHQGQHIGEMSFLQHNKCECRPKKD
Consider B12, for which the binding result was “binds” with VEGFR-2-Fc, “binds” with VEGFR-1-Fc and “no binding” with VEGFR-3-Fc.

B13: 12-1 (ligand)
chain: B10 chain with S56D, Q60E
Consider B13, for which the binding result with VEGFR-2-Fc, with VEGFR-1-Fc and in the assay with VEGFR-3-Fc was “binds” in each case.

B14: 12-14 (ligand)
chain: GQNHHEVVKFMDVYQRSYCHPIETLVDIFQEFGVATNTFFKPPCVSVYRCGGCCNDEGLECMNTSTSYLSKTLFEITVPLSQGPKPVTISFANHTSCRCMSKLD
Take B14: the binding result with VEGFR-2-Fc was “no binding”; in the assay with VEGFR-1-Fc, “no binding”; with VEGFR-3-Fc it was “binds”.

B15: 61-14 (ligand)
chain: GQNHHEVVKFMDVYQRSYCHPREVCIDVGKEYPDEIEYIFKPSCVPLMRCGGCCNDEGLECMNTSTSYLSKTLFEITVPLSQGPKPVTISFANHTSCRCMSKLD
As for B15, the binding result with VEGFR-2-Fc, with VEGFR-1-Fc and with VEGFR-3-Fc was “no binding” in each case.

B16: 82-7 (ligand)
chain: AHYNTEILKFMDVYQRSYCHPIETLVDIFQEFGVATNTFFKPPCVSVYRCGGCCNSEGLQCVPTEESNITMQIMRIKPHQGQHIGEMSFANHTSCRCMSKLD
On to B16, for which the binding result in the assay with VEGFR-2-Fc, in the assay with VEGFR-1-Fc and with VEGFR-3-Fc was “binds” each time.

B17: 12-7 (ligand)
chain: B16 chain with A1G, H2Q, Y3N, N4H, T5H, I7V, L8V
For the molecule B17, the binding result in the assay with VEGFR-2-Fc, with VEGFR-1-Fc and with VEGFR-3-Fc was “binds” each time.

B18: 82-9 (ligand)
chain: AHYNTEILKFMDVYQRSYCHPIETLVDIFQEFGVATNTFFKPPCVSVYRCGGCCNDEGLECVPTEESNITMQIMRITVPLSQGPKPVTISFLQHNKCECRPKKD
Regarding B18, the binding result in the assay with VEGFR-2-Fc, with VEGFR-1-Fc and with VEGFR-3-Fc was “binds” throughout.

B19: 12-9 (ligand)
chain: B4 chain with S43P, P46S, L47V, M48Y
In the case of B19, the binding result with VEGFR-2-Fc is listed as “no binding”; in the assay with VEGFR-1-Fc, “binds”; with VEGFR-3-Fc, “binds”.

B20: 84-11 (ligand)
chain: B18 chain with P43S, S46P, V47L, Y48M, D56S, E60Q
In the case of B20, the binding result with VEGFR-2-Fc, in the assay with VEGFR-1-Fc and with VEGFR-3-Fc was “binds” in each case.

B21: 84-9 (ligand)
chain: B18 chain with P43S, S46P, V47L, Y48M
With B21, the binding result with VEGFR-2-Fc, with VEGFR-1-Fc and in the assay with VEGFR-3-Fc was “binds” throughout.

B22: 82-11 (ligand)
chain: B18 chain with D56S, E60Q
On to B22, for which the binding result with VEGFR-2-Fc, in the assay with VEGFR-1-Fc and with VEGFR-3-Fc was “binds” in each case.

B23: 12-11 (ligand)
chain: B4 chain with S43P, P46S, L47V, M48Y, D56S, E60Q
Take B23: the binding result with VEGFR-2-Fc, with VEGFR-1-Fc and in the assay with VEGFR-3-Fc was “binds” throughout.
